Results published in publication PMC9116609 (Science Advances, 2022).

B2: dehydrodolichyl diphosphate synthase (DHDDS), residues 1 to 333 (enzyme)
chain: MSWIKEGELSLWERFCANIIKAGPMPKHIAFIMDGNRRYAKKCQVERQEGHSQGFNKLAETLRWCLNLGILEVTVYAFSIENFKRSKSEVDGLMDLARQKFSRLMEEKEKLQKHGVCIRVLGDLHLLPLDLQELIAQAVQATKNYNKCFLNVCFAYTSRHEISNAVREMAWGVEQGLLDPSDISESLLDKCLYTNRSPHPDILIRTSGEVRLSDFLLWQTSHSCLVFQPVLWPEYTFWNLFEAILQFQMNHSVLQKARDMYAEERKRQQLERDQATVTEQLLREGLQASGDAQLRRTRLHKLSARREERVQGFLQALELKRADWLARLGTASA

Columns and labels:
[1] = molecular target: T1, shcis-PT (soluble human cis-prenyltransferase complex, DHDDS-NgBR) (Homo sapiens, UniProt Q86SQ9); assay: displacement of MANT-O-GPP followed by FRET; type: binding; conditions: competition with 10 μM MANT-O-GPP; pH 7.5, 0.5 mM MgCl2, 1 μM enzyme; S1 site
T1 sequence (Q86SQ9 1-333): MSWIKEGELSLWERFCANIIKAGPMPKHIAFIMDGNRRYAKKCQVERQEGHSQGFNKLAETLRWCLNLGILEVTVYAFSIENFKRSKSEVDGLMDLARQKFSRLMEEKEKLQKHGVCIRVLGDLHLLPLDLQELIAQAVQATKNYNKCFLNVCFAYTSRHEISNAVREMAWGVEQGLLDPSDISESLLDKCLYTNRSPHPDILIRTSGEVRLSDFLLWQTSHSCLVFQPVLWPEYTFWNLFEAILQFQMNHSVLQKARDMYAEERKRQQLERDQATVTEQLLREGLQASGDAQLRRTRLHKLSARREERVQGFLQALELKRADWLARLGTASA
T1 sequence (Q96E22 73-293 partner): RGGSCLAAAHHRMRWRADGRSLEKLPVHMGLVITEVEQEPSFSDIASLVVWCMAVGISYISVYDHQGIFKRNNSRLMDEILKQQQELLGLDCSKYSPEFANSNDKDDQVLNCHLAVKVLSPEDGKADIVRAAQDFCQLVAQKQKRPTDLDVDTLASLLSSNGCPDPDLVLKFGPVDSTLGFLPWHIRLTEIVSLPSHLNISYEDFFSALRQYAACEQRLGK

[2] = molecular target: B2; assay: crystal structure
[3] = molecular target: the molecule itself; assay: crystal structure

**Q.** CC(C)=CCC/C(C)=C/CC/C(C)=C/CO[P@@](=O)(O)OP(=O)(O)O [FPP] was tested. Which IC50 [1] did it give?
**A.** 10.5 ± 3 µM

B1: Nogo B-receptor (NgBR), pseudo cis-prenyltransferase domain, residues 73 to 293 lacking residues 167 to 175 (domain or fragment)
chain: RGGSCLAAAHHRMRWRADGRSLEKLPVHMGLVITEVEQEPSFSDIASLVVWCMAVGISYISVYDHQGIFKRNNSRLMDEILKQQQELLGLDCSKDKDDQVLNCHLAVKVLSPEDGKADIVRAAQDFCQLVAQKQKRPTDLDVDTLASLLSSNGCPDPDLVLKFGPVDSTLGFLPWHIRLTEIVSLPSHLNISYEDFFSALRQYAACEQRLGK
**Q.** Does B1 bind [2]?
**A.** binds

**Q.** Does B2 bind [3]?
**A.** binds
